Experimental data as given in the domain aggregation screens of Martell et al. (2025).

Test: soluble fraction after stress (log2 fold change); higher = more stays soluble; pooled small domains, quantitative proteomics
Conditions: stress: 50 degC
Summary of the method: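 After stress at 50°C, the amount of each protein still soluble was measured. This was done on pooled custom libraries of small protein domains, using high-throughput quantitative proteomics. The figure given is a base-two log fold change and stands for aggregation propensity, with higher values meaning more protein stays in solution.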

| Sequence | soluble fraction (log2) |
| --- | --- |
| HMSTALTPLTTREREVLALMAEGLTNSGIAARLVLTDRTVETHVSRILHKLGLGETTTNEHRRVLAVLRYL | -1.5 |
| HMVRGNLAEELLKLREEEGISFQEAGARSGIARSTISQVVNQGLRLKPNQEESLWRVIEEVRGVKER | 0.046 |
| HMESWEDSNIANEFKSTIKIAEKRLAEGGDHPELLEKLEALKQAIINENQTEASKLDDQVNDILFDMDD | -0.0057 |
| HMGQTDTIIKTTTDLYYEMSTMSDDDKLVVAQTLRDVWMAVGRWSGKLSKKQREKVAEVKRVLGE | -0.833 |
| HMIALKNLREEKRMTQAELSKDLEISPSAIGMYEQGRRVPDVSTLKKISAYFNVSIDYLLGNSTSKDI | -0.018 |
| HMGQGSAFVYYEVLPKQTEYSLTRKLGLGYADLLSLNPQLARGLQAGMVLKIPRDKAGNLEVKNDLILE | -0.271 |
| HMNSLTVPDITNRTLAEASQVLLDMGLTPIPDAVAKDGVGDDVVYAQSPPPNVGAREGDVVTITYNPA | 0.156 |
| HMISVTNRTGTGLNDVKVEVFPVGRQMVFSATVFRVESEATNRFSLGELRGSDGTPFNQRVHRPESI | 0.188 |
| HMRTGLSGMIGEIGIVKQAIDPEGKVAVHGELWKARADVALAAGQTVRVVAVDGLTMTVEATDSK | -0.0264 |
| HMTRQEFIRKLQEALNGKLDAATIQDHLKFYDDYIIEEMRKGKSEQEVLELLGDPWAIAKTIVDAS | 0.349 |
| HMQQIAVDLSEFKPRLMRDMSSMLAGLYTHDLDLSSLDFSKVANFTFMFRGAIITGTLKMPKI | 0.00375 |
| HMAEDGNMTFEEYAKRWLARQVRYAPSTLESYRRMLGRVYPFIGAIPINRLRPIALENLLAELRKRT | -0.48 |
| HMSMEKNWVPSEDVIEILTRAGMNENFIRELIPEFIIYWSERKDVLISYDSKFIEHARLKWAQHNAE | 0.176 |
| HMFINITAITGNNYNTPDAARNALPNTYNKKIGLVFTYRDLTNRYRVYLYNSETSNYIPLDSYM | -3.39 |
| HMKVLNVLESEIVRLFKQGQQKDNIRDNIYKTHGQHYNNKKSFNVVFGRKWNSLLEQGFLES | -0.595 |
| HMYKTKVDIAYDMLMERITEGVYKPGEKLVITHISKELGISDIPVREAIRRLESEGYVKILPNQGAIVYD | -0.395 |
| HMNTEVDKVLLRSGEAYFGEVLLRNDELVMMKTQDGARFQFPVSEIKSIEKVSVADALRHINS | 0.0758 |
| HMSDSLVLTGVAYVDGKPVVTLFDKVKKESLVVTDQPNLKGWTLVEATQSSDIKRATAKVNIGGEPVSIRY | 0.117 |
| HMRGGKGTVPDVTGMDAAAAVRILEKAGMNVAYIRGAGFVAEQTPAAGTKLKKGDKAYITLSWK | -0.0707 |
| HMIYKLTLLRDLPEAKAGFDFYLRGGLASHDGEEWFSWVTREPIYARLYWLYVEKREEWVLVEETDI | -4.46 |
| HMNENYNLSKREKEVLDLLVNGKSYKVIATELAISYETVHSHIKKIYHKLHVSSIGEAVSKTIKQKIL | -1.58 |
| HMGIKLSDRQMQIVEIVKSQQPITSEQVAERLNLTRAALRSDLSILTMAGILEARPKVGYSLTGR | -0.334 |
| HMDILPRMVASEMRAVGVPPERMTREEKGTVIRNLMNAGIHQMKGAVVEIARQLHLSEPTVYRYIKREKG | -0.327 |
| HMGASALTEREREVLRLLEGGGSDKRIARQLAISEHGVRYHLKSIYKKLGVHDRVSAIAAGRRLAS | -0.21 |
| HMKMATITKRTNPSGAVVYRAQVRVKREGYPPYSESRTFSKKSLATEWAKRREFEIETNPDLLFN | -1.26 |
| HMDNWYIAFNSFLSQNKLTAKNVSELTGLSKPTIDSYKQGKRKPTDENMQIIKDKLGFNISEILYN | -0.265 |

| Sequence | soluble fraction (log2) |
| --- | --- |
| HMAFDYETYQLTSREFSIIELVADGRSNREIAEALYLGEGTVRNYLSSILEKLELRDRTQLAVFFYQHL | -2.3 |
| HMGNIALAIARFREMIAEDPNLQPVRLHLAMALMADHQDEAARGQLEKLRSDQLPDDIRKIVDDALAALR | -1.13 |
| HMETSIQFIRLEIGHNHPWVNQTLKEIPTIPGTLIAAVLRGDEDQAIIPKGDTLLKEGDSVIIGAKEYQD | -0.919 |
| HMTYNIPEHYQTIDVKEYVRKLVSDGDSDQIGRVEMELTEFETRNLFPVLKVLIYIIDTMRK | -2.45 |
| HMKITKIWFTADHIFGRDEEGKEYSQSLLWYPKLSAASDEERSQYTFGYDGIHWRSLDEDISFESF | -3.98 |
| HMAATISPEIQAEAEKAAALGVESIKNFMASLKEKNPEQHALFSDSEKRRLYAIARKADLNTTQQG | -0.103 |
| HMDIFGREAEVEQILQEVRFGDDPHYRLSIGILPVTGHAGAGKTALVRFIFHHEVARAEFTVRMWVHV | 0.106 |
| HMEQPAPSTTVDILGGGRAALVTANRELGLALADDEIDYLTDSFTQLGRNPVDVELMMFAQA | 0.00743 |
| HMPRYQQIARQLKTAIEHGELKPGARLPSSRTWSQELGISRSTVESAYTELVAQGWLERRGQAGTFVSAQL | -0.749 |
| HMLLQTAVISTDIVNMRAEPTTNSSVIRKLTKGSDITINQEKDGWYKISDDQGNSGWIVTWAAKPT | 0.0497 |
| HMARKISVEALGKYFPNSPMLAAAVAVTGVMKKDEFIHEMRASYKHKFAKKPEVIDGNMKALTMTFEA | -0.126 |
| HMEVVRVEPGATVRDLGEALGVPPTRIIQILMGLGEMKTVTQTLSTEEIELVAEELGRRVEV | 0.135 |
| HMKTGTTGLIGEIGVVKKALTPEGKVFVHGELWRAVSKTASPEGTLVQVIKINNLVLEVEKV | -1.47 |
| HMKQPNSYGSVHKLPGKRRKPWRVRKTSGWLLDEQSGTVKQQYITIGYYATKQEALIALADYNENP | -1.62 |
| HMGRMTRKDRALATDLYGRIVGNVDDFHEGRIDYETFSERQRGLWTTLDAAGPEVKRAVLADIRERL | -0.187 |
| HMGTDFRPVFQYVDELVRAGEFTNLKGMIYFTDGRGIFPEKKPDYDAAFVFLDDGYDPPDVPVWAIKLVL | -0.161 |
| HMSSDEEQLATLTRLLQKQEQIIQTLGPRNPMVSLQQYANTITKVIEMAGFKDTSQFINSQIP | -0.0471 |
| HMDVLDVADNVNDDMSFADAFAAARSEVGAGGIFYWHGKAYGTYYENEWAGMSEEDKADYWDAVARTTS | -0.18 |
| HMNLGNLLKIYRKNSLLTQQQVADALNINRTTYTYYETGKTEPSIDTLHKLIKIFGITYDDLL | -2.7 |
| HMKEQYDLNDREQQFISLVANGLNNKEIAETLFLSEGTVRNYLSNLLDKLGLRDRTQLAIFFYQHL | -0.953 |
| HMDEPGAGYKWREDVLLRVMASHGIEESLRDDFVRHAVGFDNDDNMYLKKVEIENAAAAWVAN | -0.377 |
| HMYTLGEESDGTVRLLELYDIIKNKNEKIFVVDELDRSLHPNLTFNFVKKYLSIENKSQLIVSTH | -0.0206 |
| HMDRETEEYELIRAKLEWLYQKQTGTIRNQTAKILHHLEIAKEEGNYYLYLKIKEEAKQWLVQASMYLD | -0.231 |
| HMKPSISKIYALWGVLQRSGKIKSQDKAALDAFVRKYTGVDHVKWLDESQARKIIEILKQMIA | -0.458 |
| HMNRIGERIKRKRELRNLNLGELAEKVGISASALSQIEKSKSFPSVITLKSIAEQLRTTVGELIGEN | 0.0607 |
| HMNISLGALVTITDQKGRSHTVTLESGKQFFTNHGSINHDEIIKAGEGGVVASSSGMLYTIFTP | -0.836 |

| Sequence | soluble fraction (log2) |
| --- | --- |
| HMKLVESALSILEEAVDRDFHGNLGDAARYFDIPYQTIYSWLKSRKRVPSLRALEPVLEKLGVSFTT | -0.896 |
| HMGTRPAYAADAPNPQKRFIYHRIVDQLRNKATGAPISYRAIAAETGVSVQTVINIKNRMNQMLSEK | -0.0598 |
| HMAVANEAIANINMKEVKQAIHNLPEIFKNPFLLYFDGYKYHEIAEMLDEPLGTIKSRIHFARKLLKSHI | -0.674 |
| HMGLYPYSGTPADNQEANERRIFDIYSTHLERIFSDFSGATLRTKRLVLRLMQELVHSDPVRMAGILDEL | 0.00204 |
| HMRNSFTVENTGERLDVFLTGQMPEFSRSHIQKLIASGQAWVNGVNRKGNFKLKPHDVVELEVPEPE | 0.53 |
| HMKTLKHYFASIAHEFGREEAELMLLSVFKTPFEQRLMLFMKDPALTEAQVQQLDNLVRQRKQGVPLPYIL | -0.22 |
| HMDLDIGSVLQASRGEKKISLRQLAERTGLTASMLSQIERNLVNPSINTLKVIAAALEIPMYKFFMG | -0.835 |
| HMGLASEVKTEDVLNEEKYDFEPDLIGNNNEAIYQNKQTGSYVLFDRNQNKVTKVLSAGEVLNHSKYNE | -0.0697 |
| HMDIYLTAFKTTSNQVTLNGIARSDLIISEFMRDIRDAKLFGEPVLQVIQNKNLNNVQARVFELVVPL | -0.263 |
| HMKDLQHLVGEKGTTVTPLRPSGIALIKGSRYDVVSEGSFIQQGVAVEVIKVEGRRVVVSPLQED | -0.16 |
| HMYEHLKALRESLGMTQAEFGESVGVAKSTYNNYEIGARDPKSDFWIAVAQRYGVTIDYLMGFSDDPKKT | -1.65 |
| HMSVNEKVRLFRELNQWSQEEMAERMNMSVAGYAKIERGETNISLHKLKQIASVLQIDLLDLVS | -0.32 |
| HMSISEADAKKIALEKVPGATDSNLRIKTDYDDGIMKYEVKIVYNEMKYEFDIDAATGTILEWESESVY | -0.659 |
| HMFTYDLSERELTIIELVAKGLNNKELADTLFLSEGTIRNYLSTLLNKLDLRDRTQLAIFYYQHL | -2.62 |
| HMQPIEIQDRITKAFERSAALEAKNINVEVDGHTVKLTGTVHSLTEKEEARKAAFFAPGVTKVENHLIVDY | 0.0426 |
| HMIDQNEDLLSGYIDEVLSQNPDKVNEYLKGKSGLIGFFMGQIKQKSATALDAALLKSQLETALEKLRIK | 0.059 |
| HMISASDLQTYLKGMDYPARKEDLIVHAQRNNAPESVIAAIRQFSDRTYQSAADVSEEFGKI | 0.19 |
| HMATLAVPNLMRLSQGEAMALIRLSGLSIGNVSIDSSMGSPRVIRQEPQASGGMLVLTQGDQVHLWLEGP | -3.2 |
| HMTPSTVQVHVAGAVKNPGVYVLLENARNIDAITAAGGATSEADLERINLSEFIRDGQRVYVPYKGDPI | 0.269 |
| HMILEEIIGKNIARYREAAGLTQATLAEKIGISTAFVSRVERGQKKMKVETLYATAKVLNVSVDALLS | -2.1 |
| HMLDSDARRRGLIEYLSLNGYATMRQLAGEFDVSINTIQRDITYLARYYPLETAYGRYGGGVYFEQNWQ | -1.56 |
| HMITIDADTGKRVYTRKEVADLVGASTQSIRLWEDAGAIPASVRDEGGYRYWYEEDLEAIKAYAS | -0.19 |
| HMGQVGIPFSDFLAEVENGQVREVVIKGNDISGTFNDNRGFSTYAPNDPNLVEKLTKRGVVINAQPTE | 0.0645 |
| HMRQQSLHSLYRDHHSWLQNWLRRQLGNTWDAADLSQDTFIKVLASSQSVAEIREPRAYLLTVGKRL | -0.17 |
